16 molecules from patent publication US20240409645A1 (published 2024) can be followed below.

To fix the notation:
T1: human IL-2 receptor IL-2Rα/IL-2Rβ/γc on HEK-Blue IL-2 cells (UniProt P01589 22-272; P14784 27-551; P31785 23-369)
T1 chain 1: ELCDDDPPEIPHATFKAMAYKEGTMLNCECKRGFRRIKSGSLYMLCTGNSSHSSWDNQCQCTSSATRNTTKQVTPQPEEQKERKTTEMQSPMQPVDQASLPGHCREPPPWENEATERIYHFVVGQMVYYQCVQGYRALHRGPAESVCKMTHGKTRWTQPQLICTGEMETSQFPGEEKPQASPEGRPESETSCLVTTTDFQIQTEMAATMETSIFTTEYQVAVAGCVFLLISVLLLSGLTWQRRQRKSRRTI
T1 chain 2: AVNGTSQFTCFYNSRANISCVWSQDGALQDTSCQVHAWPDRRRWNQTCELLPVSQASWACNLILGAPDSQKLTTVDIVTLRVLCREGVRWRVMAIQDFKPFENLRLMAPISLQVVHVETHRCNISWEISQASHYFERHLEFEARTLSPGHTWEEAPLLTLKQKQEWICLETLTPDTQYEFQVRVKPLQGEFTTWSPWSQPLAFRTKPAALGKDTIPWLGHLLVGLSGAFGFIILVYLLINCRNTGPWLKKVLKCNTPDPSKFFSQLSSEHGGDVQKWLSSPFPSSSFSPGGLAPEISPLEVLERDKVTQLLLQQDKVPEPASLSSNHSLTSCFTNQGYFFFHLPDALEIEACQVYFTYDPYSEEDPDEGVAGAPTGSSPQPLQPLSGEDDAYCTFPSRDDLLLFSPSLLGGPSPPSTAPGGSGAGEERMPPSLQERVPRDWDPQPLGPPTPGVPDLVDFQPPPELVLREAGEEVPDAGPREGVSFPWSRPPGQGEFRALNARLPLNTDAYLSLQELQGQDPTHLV
T1 chain 3: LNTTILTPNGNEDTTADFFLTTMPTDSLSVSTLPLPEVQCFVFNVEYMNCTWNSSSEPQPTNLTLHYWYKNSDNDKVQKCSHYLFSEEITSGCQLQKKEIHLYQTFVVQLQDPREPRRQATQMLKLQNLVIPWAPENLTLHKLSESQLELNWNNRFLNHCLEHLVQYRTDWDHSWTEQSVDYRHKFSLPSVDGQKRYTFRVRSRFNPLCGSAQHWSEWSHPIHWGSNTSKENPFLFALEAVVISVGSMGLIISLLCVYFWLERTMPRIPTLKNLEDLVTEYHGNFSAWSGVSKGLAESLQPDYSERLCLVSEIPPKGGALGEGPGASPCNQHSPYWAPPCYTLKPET

B1: BsVHH-8 (32x18) (antibody)
chain: QVQLVESGGGLVQAGGSLRLSCAASGRTFGSTAVGWFRQVPGKEREFVSAINRSGSATTYADSVKGRFTISRDNAKNTVYLQMNSLTPEDTGVYYCAADSLPYGRPYYFQRSAGEYDYWGQGTQVTVSSGGGGSGGGGSGGGGSGSQVQLVESGGGLVQPGGSLRLSCAISGGTLDSYGIGWVRQAPGKQREGVSCMSRSDDRTYYADSVKGRFTISKDSAKNTVYLQMTSLKPEDTAVYYCAAVDAYGCSLVQPTTYDFWGLGTQVTVSSGGGGSGGGGSGGGGSTVSSDKTHTCPPCPAPEAAGGPSVFLFPPKPKDTLMISRTPEVTCVVVDVSHEDPEVKFNWYVDGVEVHNAKTKPREEQYNSTYRVVSVLTVLHQDWLNGKEYKCKVSNKALGAPIEKTISKAKGQPREPQVYTLPPSRDELTKNQVSLTCLVKGFYPSDIAVEWESNGQPENNYKTTPPVLDSDGSFLLYSKLTVDKSRWQQGNVFSCSVMHEALHNHYTQKSLSLSPGK
B2: BsVHH-9 (35x18) (antibody)
chain: QVQLQESGGGLVQGGGSLRLSCAASGGIFSSYAMGWFRQAPGKEREFVAAISRSGRSTNYADSVKGRFTISRDNAKSTVYLQMNSLKPEETAVYYCAAGRYYNSAYDPSPGDFGSWGHGTQVTVSSGGGGSGGGGSGGGGSGSQVQLVESGGGLVQPGGSLRLSCAISGGTLDSYGIGWVRQAPGKQREGVSCMSRSDDRTYYADSVKGRFTISKDSAKNTVYLQMTSLKPEDTAVYYCAAVDAYGCSLVQPTTYDFWGLGTQVTVSSGGGGSGGGGSGGGGSTVSSDKTHTCPPCPAPEAAGGPSVFLFPPKPKDTLMISRTPEVTCVVVDVSHEDPEVKFNWYVDGVEVHNAKTKPREEQYNSTYRVVSVLTVLHQDWLNGKEYKCKVSNKALGAPIEKTISKAKGQPREPQVYTLPPSRDELTKNQVSLTCLVKGFYPSDIAVEWESNGQPENNYKTTPPVLDSDGSFLLYSKLTVDKSRWQQGNVFSCSVMHEALHNHYTQKSLSLSPGK
B3: BsVHH-7 (31x18) (antibody)
chain: QVQLVESGGGLVQAGGSLRLSCTGYGGAFTGYALGWFRQAPGKEREFVARINWSGSFTYYASSVKGRFTISRDNAKNTMYLQMNNLKPEDTAVYYCAADNPSTLATDYDNWGQGTQVTVSSGGGGSGGGGSGGGGSGSQVQLVESGGGLVQPGGSLRLSCAISGGTLDSYGIGWVRQAPGKQREGVSCMSRSDDRTYYADSVKGRFTISKDSAKNTVYLQMTSLKPEDTAVYYCAAVDAYGCSLVQPTTYDFWGLGTQVTVSSGGGGSGGGGSGGGGSTVSSDKTHTCPPCPAPEAAGGPSVFLFPPKPKDTLMISRTPEVTCVVVDVSHEDPEVKFNWYVDGVEVHNAKTKPREEQYNSTYRVVSVLTVLHQDWLNGKEYKCKVSNKALGAPIEKTISKAKGQPREPQVYTLPPSRDELTKNQVSLTCLVKGFYPSDIAVEWESNGQPENNYKTTPPVLDSDGSFLLYSKLTVDKSRWQQGNVFSCSVMHEALHNHYTQKSLSLSPGK
B4: BsVHH-15 (36x19) (antibody)
chain: QVQLVESGGGLVQAGGSLRLSCAASGRTLSRYAMGWFRQAPGSEREFVAASSWGGDTFYADSVEGRFTFSRDNAKNAVYLQMNSLQPEDTAAYYCAAAPTSFPTTAYSSSNSYAYWGQGTQVTVSSGGGGSGGGGSGGGGSGSEVQLVESGGGLVQTGGSLRLSCAASGGTFSRDAMAWFRQVPGKEREFVALISWSGATTNYADSVKGRFAISRDNGKNTVYLQMNRLKPADTAIYYCAADRRPMGSRSYFEPTEYDDWGQGTQVTVSSGGGGSGGGGSGGGGSTVSSDKTHTCPPCPAPEAAGGPSVFLFPPKPKDTLMISRTPEVTCVVVDVSHEDPEVKFNWYVDGVEVHNAKTKPREEQYNSTYRVVSVLTVLHQDWLNGKEYKCKVSNKALGAPIEKTISKAKGQPREPQVYTLPPSRDELTKNQVSLTCLVKGFYPSDIAVEWESNGQPENNYKTTPPVLDSDGSFLLYSKLTVDKSRWQQGNVFSCSVMHEALHNHYTQKSLSLSPGK
B5: 13-MP05E12 (antibody, V domains shown)
VH: QVQLQESGGGLVQAGDSLRLSCAASGFNFGWHAMGWFRQAPGKEREFVATITWTGRDTYYADSVRGRFTISKDNAKDTLFLQMNSLRPDDTGVYYCAKARERATWAYSEDDCDYWGQGTQVTVSS
B6: 5-MP01F05 VHH-hFc, monospecific monovalent (Fc fusion)
VHH: EVQLVESGGGLVQAGGSLRLSCAASIRAFTTWSMAWFRQAPGKEREYVARINVSGSVTYYADFVKGRFTISRDNAKKTMYLEMNNLKPEDTALYYCAADRTGVGTNDYNYWGQGTQVTVSS
B7: 10-MP05F03 VHH-hFc, monospecific monovalent (Fc fusion)
VHH: QVQLVESGGGLVQAGGSLRLSCAASGIPFDNYAMGWFRQAPGKEREFVAARDLEGIITRYGDSVKGRFTISRGNAKNTVFLQMNSLKPEDTAVYYCAARDGGVVAGSRSSAQYNYWGQGTQVTVSS
B8: 8-MP01C12 VHH-hFc, monospecific monovalent (Fc fusion)
VHH: QVQLVESGGGLVQPGGSLRLSCATSGFTFSNNFMSWVRQAPGKGLEFVSTISYGGESTTYAEAVKGRFTISRDNAKNTLYLQMNNLKPEDTAIYYCAKATSYTSIRGAPRGQGTQVTVSS
B9: 9-MP05G01 VHH-hFc, monospecific monovalent (Fc fusion)
VHH: EVQLVESGGGLVQAGGSLRLSCAASGGSIYTYNMGWFRQAPGKEREFVAGTLWSGGDSVYADFAKGRFTLSRENAKNTLYLQMNSLKPEDTATYYCAIDPLSLTSDWRVDELSSWGKGTLVTVSS
B10: 6-MP01G05 VHH-hFc, monospecific monovalent (Fc fusion)
VHH: QVQLQESGGGLVQAGGSLRLSCAASGRTFSSYAMGWFRQAPGKEREFVAVISWNVDNTEYTDSVKGRFTISRDNDKNMVYLQMNSLKPEDTAVYYCAADSIPLSSDMSPTATEYGYWGQGTQVTVSS
B11: 3-MP01E03 VHH-hFc, monospecific monovalent (Fc fusion)
VHH: QVQLVESGGGLVQAGGSLRLSCTASGRTLSSYSMAWFRQAADKGREFVTAISSSGVVTHVLDSVKGRFTISRDNAKNTVYLQMNSLQPEDTALYFCAGTASSYSTYEANYNYWGQGTLVTVSS
B12: 11-MP05H04 VHH-hFc, monospecific monovalent (Fc fusion)
VHH: QLQLVESGGGLVQAGGSLRLSCAASGLTFEGYAIGWFRQAPGKEREGVSYITGSDGTTYYINSVKGRFTISSDNAKSTVYLQMNTLKPEDTAVYYCAVDRLGSQGRYASAWWRSGDMDLWGKGTQVTVSS
B13: 1-MP01H01 VHH-hFc, monospecific monovalent (Fc fusion)
VHH: EVQLVESGGGLVQAGGSLRLSCAASGRTFRTHNMGWFRRAPGKEREFVAAISWNVDNTLYADSVKGRFTISRDNGRNMVYLQMNSLKPEDTAVYYCAADNIPLSSDVAATATEYDYWGQGTQVTVSS
B14: 4-MP01F04 VHH-hFc, monospecific monovalent (Fc fusion)
VHH: QVQLVESGGGLVQAGGSLRLSCAASGGTFRTRNMGWFRRAPGKEREFVAAVSWNVDNKLYADSVKGRFTISRDNGRNMVYLQMNSLKPEDTAVYYCAADNIPLSSDMRPTATEYDYWGQGTQVTVSS
B15: 12-MP05B12 VHH-hFc, monospecific monovalent (Fc fusion)
VHH: QVQLVESGGGLVQAGGSLRLSCAASGFTFDGYAIGWFRQAPGKEREGVSYITGSDGSTYYADSVKGRFTISSNNAKNTVYLHMNSLKPDDAAVYYCAIDRLGSRGAYVPIWWRSSDMDLWGKGTLVTVSS
B16: 7-MP01G08 VHH-hFc, monospecific monovalent (Fc fusion)
VHH: EVQLVESGGGLVQAGGSLRLSCAASGRAFSMYNMGWFRQAPGKEREFVAATGWSGANTPYADSVKGRFTISRDNTQNTVYLQMNSLKPEDTATYYCAADSIRLRSDVTRIPLEYDYWGQGTQVTVSS

The target of one assay is T1, human IL-2 receptor IL-2Rα/IL-2Rβ/γc on …. Kind of assay: FACS cell binding; avid.
In turn, B1 showed an EC50 of 1.9 nM.

The molecule B2 came in with an EC50 of 1.3 nM.

On to B3, for which a half-maximal effect (EC50) was put at 23.5 nM.

Regarding B4, the EC50 was 88.3 nM.

A further assay shares this target. Kind of assay: FACS cell binding; monovalent.
For the molecule B5, the EC50 was 3.2 nM.

Molecule B6 gave an EC50 of 9.2 nM.

The molecule B7 came in with an EC50 of 2 nM.

As for B8, the EC50 was determined as 2.7 nM.

B9 displayed an EC50 of 2.3 nM.

B10 registered an EC50 of 5.6 nM.

The molecule B11 returned an EC50 of 3.3 nM.

For the molecule B12, the EC50 stood at 5.9 nM.

B13 displayed an EC50 of 135 nM. This EC50 lies about 23-fold higher than the previous one.

In turn, B14 came in with an EC50 of 2.2 nM.

Molecule B15 came in with an EC50 of 8.5 nM.

On to B16, for which the EC50 was found to be 4.7 nM. Compared with the last molecule, the EC50 is about 1.8-fold lower.
